This is an account of results in US20260146107A1 (ALLIGATOR BIOSCIENCE, published 2026).

Changes are numbered by the printed parent chain.

Assay [1] has as its target T1, human CEACAM1, recombinant (R&D Systems #2244-CM-050) (human, UniProt P13688 35-428).
T1 construct: also called hCEACAM-1
T1 sequence (looked up): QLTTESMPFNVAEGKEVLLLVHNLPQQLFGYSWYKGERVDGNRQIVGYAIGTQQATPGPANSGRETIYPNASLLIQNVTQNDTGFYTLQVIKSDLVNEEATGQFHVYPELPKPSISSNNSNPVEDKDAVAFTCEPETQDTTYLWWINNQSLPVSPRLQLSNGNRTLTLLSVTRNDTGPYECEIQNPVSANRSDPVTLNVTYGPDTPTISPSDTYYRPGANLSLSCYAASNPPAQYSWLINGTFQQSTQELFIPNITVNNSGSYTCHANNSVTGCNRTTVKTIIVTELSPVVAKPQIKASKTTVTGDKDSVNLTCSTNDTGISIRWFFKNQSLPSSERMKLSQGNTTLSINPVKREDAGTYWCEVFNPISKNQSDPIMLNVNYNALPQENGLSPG
Briefly: ELISA, antigen coated at 0.5 µg/mL, IgG1 antibody at 10 µg/ml, anti-human kappa-HRP, luminescence. As for the experimental part: (§1) 96-well plates were coated with 0.5 μg/mL antigen, hCEACAM-5 (4128-CM-050, R&D Systems), hCEACAM-1 (2244-CM-050, R&D Systems), hCEACAM-6(3934-CM-050, R&D Systems) or CEACAM-8 (9639-CM-050, R&D Systems) in PBS over night at 4° C. After washing with PBS/0.05% Tween 20 (PBST), the plates were blocked with PBST, 2% BSA for at least 30 minutes at room temperature before a second round of washing. […] After washing, plates were incubated with 50 μl detection antibody (0.5 μg/ml HRP conjugated goat anti human-kappa light chain, #STAR127P, AbD Serotec). Finally, a final round of washing was performed and bound complexes detected using SuperSignal Pico Luminescent as substrate and luminescence signals were measured using Fluostar Optima.
A general note: ELISA stands for enzyme-linked immunosorbent assay.

Assay [2] addresses T2, human CEACAM5, recombinant (R&D Systems #4128-CM-050) (human, UniProt P06731 35-685).
T2 construct: Bought; coated in ELISA and used as monomeric analyte in Octet; also called hCEACAM-5; Human CEACAM5-His; not shown: His tag
T2 sequence (looked up): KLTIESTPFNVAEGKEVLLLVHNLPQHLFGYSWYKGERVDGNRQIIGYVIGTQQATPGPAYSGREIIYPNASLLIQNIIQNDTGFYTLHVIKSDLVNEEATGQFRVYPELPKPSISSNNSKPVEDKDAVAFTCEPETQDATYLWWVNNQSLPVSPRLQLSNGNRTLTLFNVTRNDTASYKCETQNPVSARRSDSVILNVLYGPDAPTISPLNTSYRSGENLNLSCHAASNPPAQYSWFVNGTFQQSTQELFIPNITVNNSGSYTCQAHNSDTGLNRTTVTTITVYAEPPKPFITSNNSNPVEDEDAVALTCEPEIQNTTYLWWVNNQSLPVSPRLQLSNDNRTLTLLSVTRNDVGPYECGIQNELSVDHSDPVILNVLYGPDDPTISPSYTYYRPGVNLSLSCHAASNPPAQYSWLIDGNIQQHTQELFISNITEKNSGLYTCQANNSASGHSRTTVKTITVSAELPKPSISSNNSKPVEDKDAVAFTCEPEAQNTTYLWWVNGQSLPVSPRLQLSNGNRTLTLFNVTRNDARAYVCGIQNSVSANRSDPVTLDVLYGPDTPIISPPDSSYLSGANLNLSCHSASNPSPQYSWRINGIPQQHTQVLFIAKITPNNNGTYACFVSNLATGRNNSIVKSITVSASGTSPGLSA
Briefly: Octet BLI, IgG1 captured on AHC tips, CEACAM5-His in solution, 1:1 fit. Here is the method: Kinetic measurements were performed in the Octet RED96 platform using several different setups. Monoclonal antibodies (listed in Table 9), serially diluted ½ starting at 100 nM, were captured to anti human IgG Fc Capture (AHC) Biosensor tips (Sartorius #18-5060). Human CEACAM5-His (R&D Systems #4128-CM-050) diluted in 1× kinetic buffer (Sartorius) at 100 nM was then added. Binding kinetics was studied in 1× kinetic buffer where association was allowed for 300 sec followed by dissociation for 600 sec. Sensor tips were regenerated with 10 mM Glycine pH 1.7. Data generated were referenced by subtracting blank or parallel buffer blank, the baseline was aligned to the y-axis, inter-step correction by alignment against dissociation was performed and the data was smoothed by Savitzky-Golay filter in the data analysis software (v9.0.0.14). The processed data was fitted using a 1:1 Langmuir binding model with R² or X² as a measurement of fitting accuracy.
Background: BLI is a label-free optical method that tracks binding on a fibre tip over time.

The target in assay [3] is T2, human CEACAM5, recombinant (R&D Systems …). Briefly: ELISA, antigen coated at 0.5 µg/mL, IgG1 antibody at 10 µg/ml, anti-human kappa-HRP, luminescence. As for the experimental part: as §1
Assay [4] has as its target human CD40 expressed on cells (CD40 reporter cells, HEK Blue CD40L cells, primary B cells, tumour APCs) (human, UniProt P25942 21-277). As to the kind of experiment: cell-based or functional assay.

human CD40 expressed on cells (CD40 reporter cells, HEK Blue CD40L cells, primary B cells, tumour APCs), sequence (P25942 21-277): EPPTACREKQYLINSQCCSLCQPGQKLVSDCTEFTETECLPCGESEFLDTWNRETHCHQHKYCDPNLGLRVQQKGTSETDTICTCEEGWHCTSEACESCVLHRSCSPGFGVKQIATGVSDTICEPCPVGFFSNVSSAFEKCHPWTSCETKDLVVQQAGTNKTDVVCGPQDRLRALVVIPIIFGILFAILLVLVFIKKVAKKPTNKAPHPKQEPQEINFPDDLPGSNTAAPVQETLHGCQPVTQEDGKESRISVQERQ

B1: AC_05099 (antibody, V domains shown)
VH: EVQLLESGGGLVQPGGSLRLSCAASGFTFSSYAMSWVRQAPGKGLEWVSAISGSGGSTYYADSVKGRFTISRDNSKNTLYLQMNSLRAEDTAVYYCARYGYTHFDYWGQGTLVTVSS
VL: DIQMTQSPSSLSASVGDRVTITCRASQSISSYLNWYQQKPGKAPKLLIYAASSLQSGVPSRFSGSGSGTDFTLTISSLQPEDFATYYCQQAGNPHTFGQGTKLEIK
Take B1: the binding result in assay [1] is “no binding (tested: 10 µg/ml)”.

B2: AC_05081 (antibody, human IgG1, kappa, V domains shown)
VH: EVQLLESGGGLVQPGGSLRLSCAASGFTFSSSYMGWVRQAPGKGLEWVSSIGSGSYSTSYADSVKGRFTISRDNSKNTLYLQMNSLRAEDTAVYYCARYPSVPFQPHLDYWGQGTLVTVSS
VL: DIQMTQSPSSLSASVGDRVTITCRASQSISSYLNWYQQKPGKAPKLLIYAASSLQSGVPSRFSGSGSGTDFTLTISSLQPEDFATYYCQQAGNPHTFGQGTKLEIKR
On to B2, for which the binding result in assay [1] is reported as “no binding (tested: 10 µg/ml)”. Also, in assay [2], the Kd – broadly, the concentration at which binding is half-saturated – was determined as 100 nM; the koff (in general, the first-order rate constant of dissociation) came to 0.008 s⁻¹; the kon (commonly the rate constant with which the complex forms) turned out to be 60000 M⁻¹ s⁻¹.

B3: AC_05080 (antibody, V domains shown)
VH: B2 VH with Q105P, H107L
VL: B1 VL
B3: the binding result in assay [1] was “binds”. In assay [2], the Kd was 0.008 nM, the koff was 2e-06 s⁻¹ and the kon amounted to 200000 M⁻¹ s⁻¹.

B4: AC_05059 (antibody, human IgG1, kappa, V domains shown)
VH: B2 VH with Q105P
VL: B2 VL
Turning to B4, in assay [2], the Kd was under 0.001 nM, the koff is under 1e-07 s⁻¹ and the kon came out at 300000 M⁻¹ s⁻¹.

B5: AC_05086 (antibody, V domains shown)
VH: B2 VH with R98H, Q105P
VL: B1 VL
In the case of B5, the binding result in assay [1] and in assay [3] was “binds” throughout.

B6: AC_05090 (antibody, human IgG1, kappa, V domains shown)
VH: B2 VH with Q105P, P106L
VL: B2 VL
As to B6, in assay [1], the binding result is given as “no binding (tested: 10 µg/ml)”. Besides, in assay [2], the Kd was determined as 20 nM, the koff came to 0.004 s⁻¹ and the kon amounted to 300000 M⁻¹ s⁻¹.

B7: AC_05093 (antibody, human IgG1, kappa, V domains shown)
VH: B2 VH with Q105P, L108V
VL: B2 VL
Turning to B7, the binding result in assay [1] is “no binding (tested: 10 µg/ml)”. In addition, in assay [2], the Kd stood at 0.4 nM, the koff came out at 0.0001 s⁻¹ and the kon is 300000 M⁻¹ s⁻¹.

B8: AC_05091 (antibody, human IgG1, kappa, V domains shown)
VH: B2 VH with Q105P, L108F
VL: B2 VL
For the molecule B8, the binding result in assay [1] is “no binding (tested: 10 µg/ml)”. Moreover, in assay [2], the Kd was determined as 2 nM, the koff was found to be 0.0003 s⁻¹ and the kon was 200000 M⁻¹ s⁻¹.

B9: AC_05097 (antibody, human IgG1, kappa, V domains shown)
VH: B2 VH with Q105S
VL: B2 VL
In the case of B9, the binding result in assay [1] is given as “no binding (tested: 10 µg/ml)”. In assay [2], the Kd is 0.07 nM, the koff came to 2e-05 s⁻¹ and the kon stood at 200000 M⁻¹ s⁻¹.

B10: AC_05079 (antibody, human IgG1, kappa, V domains shown)
VH: B2 VH with Q105P, H107P
VL: B2 VL
Consider B10, for which the figures for the binding result in assay [1] and in assay [3] were “no binding (tested: 10 µg/ml)” and “binds”, respectively.

B11: AC_05088 (antibody, human IgG1, kappa, V domains shown)
VH: B2 VH with P103L, Q105P
VL: B2 VL
Turning to B11, in assay [1], the binding result was “no binding (tested: 10 µg/ml)”. Also, in assay [2], the dissociation constant (Kd) was 20 nM, the koff amounted to 0.03 s⁻¹ and the kon stood at 1e+06 M⁻¹ s⁻¹.

B12: AC_05089 (antibody, human IgG1, kappa, V domains shown)
VH: B2 VH with Q105P, P106H
VL: B2 VL
On to B12, for which the binding result in assay [1] is on record as “no binding (tested: 10 µg/ml)”. Besides, in assay [2], the Kd was found to be 40 nM, the koff stood at 0.01 s⁻¹ and the kon amounted to 300000 M⁻¹ s⁻¹.

B13: AC_05094 (antibody, human IgG1, kappa, V domains shown)
VH: B2 VH with Q105P, L108W
VL: B2 VL
Regarding B13, in assay [1], the binding result was “no binding (tested: 10 µg/ml)”. In assay [2], the dissociation constant Kd was 50 nM, the koff turned out to be 0.0008 s⁻¹ and the kon is 20000 M⁻¹ s⁻¹.

B14: Multi42 (bispecific antibody, human IgG1, kappa, L234A L235A)
chain 1: not shown
chain 2: EIVLTQSPGTLSLSPGERATLSCRASQSVSSSYLAWYQEKPGQAPRLLIYGASSRATGIPDRFSGSGSGTDFTLTISRLEPEDFAVYYCQQYWYPLTFGQGTKLEIKRTVAAPSVFIFPPSDEQLKSGTASVVCYLNNFYPREAKVQWKVDNALQSGNSQESVTEQDSKDSTYSLWSTLTLSKADYEKHKVYACEVTHQGLSSPVTKSFNRGEC
chain 3: EVQLLESGGGLVQPGGSLRLSCAASGFTFSTYGMHWVREAPGKGLEWLSYISGGSSYIFYADSVKGRFTISRDNSKNTLYLQMNSLRAEDTAVYYCARILRGGSGMDLWGQGTLVTVSSASTKGPSVFPLAPSSKSTSGGTAALGCLVKDYFPEPVTVSWNSGALTSGVHTFPAVLQSSGLYSLTSVVEVPSSSLGTQTYICNVNHKPSNTKVDKKVEPKSC
Consider B14, for which, in assay [4], the “EC50 of SEAP release, HEK Blue CD40L reporter cells, bsAb crosslinked to CHO-CEACAM5 cells, 0 Raji sink cells/well” value came out at 0.04 nM; the “EC50 of SEAP release, same assay, 10 000 Raji sink cells/well” value came to 0.06 nM; the “EC50 of SEAP release, same assay, 30 000 Raji sink cells/well” value was 0.11 nM; the “EC50 of SEAP release, same assay, 90 000 Raji sink cells/well” value was found to be 0.36 nM.
